Data on 24 molecules can be found in patent publication US20230295259A1 (Protagonist Therapeutics, Inc., priority 2020, published 2023).

B1: Seq. No. 517 (peptide)
peptide: XETHXPCIXXXC
modifications: [Isovaleric Acid]-E-T-H-[Dpa]-P-C-I-[Lys(PEG12_Dap_C18_Diacid)]-[bhPhe]-[(D)Lys]-C-NH2
B2: Seq. No. 535 (peptide)
peptide: Isovaleryl-[Glu(OMe)]TH[Dip]PCIK([AEEA-AEEA-Dap-C18 diacid])[β3hF][dR]C-NH2
modifications: disulfide 6-11 (inferred)
B3: Seq. No. 512 (peptide)
peptide: Isovaleryl-[Glu(OMe)]TH[Dip]PC[Ac6c]K([AEEA-AEEA-Dap-C18 diacid])[β3hF][dK]C-NH2
modifications: disulfide 6-11 (inferred)
B4: Seq. No. 505 (peptide)
peptide: XXTHXPCIXXXC
modifications: [Isovaleric Acid]-[Glu(OMe)]-T-H-[Dpa]-P-C-I-[Lys(1PEG2_1PEG2_Dap_C18_Diacid)]-[bhPhe(4-Me)]-[(D)Lys]-C-NH2
B5: Seq. No. 521 (peptide)
peptide: XXTHXPCIXXXC
modifications: [Isovaleric Acid]-[Glu(OMe)]-T-H-[Dpa]-P-C-I-[Lys(1PEG2_1PEG2_Dap_C18_Diacid)]-[bhPhe]-[(D)Lys(Ac)]-C-NH2
B6: Seq. No. 526 (peptide)
peptide: XXTHXPCIXXXXC
modifications: [Isovaleric Acid]-[Glu(OMe)]-T-H-[Dpa]-P-C-I-[(D)Lys]-[bhPhe]-[Lys(DMG_N_2ae_Palm)]-[(D)Lys]-C-NH2
B7: Seq. No. 520 (peptide)
peptide: XXTHXPCIXXXC
modifications: [Isovaleric Acid]-[Glu(OMe)]-T-H-[Dpa]-P-C-I-[Lys(PEG12_Dap_C18_Diacid)]-[bhPhe]-[(D)Lys]-C-NH2
B8: Seq. No. 479 (peptide)
peptide: XETXXPCIXXXC
modifications: [Isovaleric Acid]-E-T-[3Quin]-[Dpa]-P-C-I-[Lys(1PEG2_1PEG2_Dap_C18_Diacid)]-[bhPhe]-[(D)Lys]-C-NH2
B9: Seq. No. 533 (peptide)
peptide: XXTHXPCIXXXC
modifications: [Isovaleric Acid]-[IsoGlu]-T-H-[Dpa]-P-C-I-[Lys(1PEG2_1PEG2_Ahx_C18_Diacid)]-[bhPhe]-[(D)Lys(PEG11_OMe)]-C-NH2
B10: Seq. No. 532 (peptide)
peptide: XXTHXPCIXXXC
modifications: [Isovaleric Acid]-[Glu(OMe)]-T-H-[Dpa]-P-C-I-[Lys(Ahx_DMG_N_2ae_Palm)]-[bhPhe]-[(D)Lys]-C-NH2
B11: Seq. No. 514 (peptide)
peptide: Isovaleryl-[Glu(OMe)]TH[Dip]PC[Tle]K([AEEA-AEEA-Dap-C18 diacid])[β3hF][dK]C-NH2
modifications: disulfide 6-11 (inferred)
B12: Seq. No. 476 (peptide)
peptide: XETHXPCIXXXXC
modifications: [Isovaleric Acid]-E-T-H-[Dpa]-P-C-I-[Lys(Ac)]-[bhPhe]-[Lys(Ahx_Palm)]-[(D)Arg]-C-NH2
B13: Seq. No. 525 (peptide)
peptide: XETHXPCIXXXXC
modifications: [Isovaleric Acid]-E-T-H-[Dpa]-P-C-I-[(D)Lys]-[bhPhe]-[Lys(DMG_N_2ae_Palm)]-[(D)Lys]-C-NH2
B14: Seq. No. 541 (peptide)
peptide: XETHXPCIXXXXC
modifications: [Isovaleric Acid]-E-T-H-[Dpa]-P-C-I-[(D)Lys]-[bhPhe]-[N-MeLys(Ahx_Palm)]-[(D)Lys(Carnitine)]-C-NH2
B15: Seq. No. 537 (peptide)
peptide: XXTHXPCIXXXC
modifications: [Isovaleric Acid]-[(D)Arg]-T-H-[Dpa]-P-C-I-[Lys(1PEG2_1PEG2_Dap_C18_Diacid)]-[bhPhe]-[(D)Lys]-C-NH2
B16: Seq. No. 496 (peptide)
peptide: XXTXXPCIXXXC
modifications: [Isovaleric Acid]-[Glu(OMe)]-T-[4Pal]-[Dpa]-P-C-I-[Lys(1PEG2_1PEG2_Ahx_C18_Diacid)]-[bhPhe]-[(D)Lys]-C-NH2
B17: Seq. No. 502 (peptide)
peptide: Isovaleryl-[Dap]TH[Dip]PCI[dK][β3hF]K([Ahx-Palmitoyl])[dR]C-NH2
modifications: disulfide 6-12 (inferred)
B18: Seq. No. 549 (peptide)
peptide: XEXHXPCIXXXXC
modifications: not fully specified; [Isovaleric Acid]-E-[Dap]-H-[Dpa]-P-C-I-[(D)Lys]-[bhPhe]-[Lys(Ahx_Palm)]-[(D)Lys]-C-NH2
B19: Seq. No. 522 (peptide)
peptide: XXTHXPCIXXXC
modifications: [Isovaleric Acid]-[Glu(OMe)]-T-H-[Dpa]-P-C-I-[Lys(1PEG2_1PEG2_Dap_C18_Diacid)]-[Igl]-[(D)Lys]-C-NH2
B20: Seq. No. 530 (peptide)
peptide: XXTHXPCIXXXC
modifications: [Isovaleric Acid]-[Glu(OMe)]-T-H-[Dpa]-P-C-I-[Lys(PEG12_DMG_N_2ae_Palm)]-[bhPhe]-[(D)Lys]-C-NH2
B21: Seq. No. 478 (peptide)
peptide: Isovaleryl-ETHFPCIK(Ac)F[dK]C-NH2
modifications: disulfide 6-11 (inferred)
B22: Seq. No. 545 (peptide)
peptide: XXTHXPCIXXXC
modifications: [Isovaleric Acid]-[Glu(OMe)]-T-H-[Dpa]-P-C-I-[Lys(PEG2_1PEG2_DMG_N_2ae_C18_Diacid)]-[bhPhe]-[(D)Lys]-C-NH2
B23: Seq. No. 508 (peptide)
peptide: XXTHXPCIXXXC
modifications: [Isovaleric Acid]-[Glu(OMe)]-T-H-[Dpa]-P-C-I-[Lys(1PEG2_1PEG2_Dap_C18_Diacid)]-[Hph]-[(D)Lys]-C-NH2
B24: Seq. No. 500 (peptide)
peptide: Isovaleryl-[Glu(OMe)]TH[Dip]PCI[dK][β3hF]K([Ahx-Palmitoyl])[dR]C[dR]-NH2
modifications: disulfide 6-12 (inferred)

Starred links: 1 amine or outer side, 2 acyl side, 3 side chain; linkers in the order of their positions; H or OH if unused. Positions of bridges follow the written chain, without caps; N, C: chain ends. Non-standard residues stand in square brackets, D forms with d. Groups on a side chain read outwards from the residue. *: point of attachment. Glu(OMe) = COC(=O)CC[C@H](N[*:1])C(=O)[*:2]; C18 diacid = O=C(O)CCCCCCCCCCCCCCCCC(=O)*; Dip = N[C@H](C(=O)O)C(c1ccccc1)c1ccccc1; Palmitoyl = CCCCCCCCCCCCCCCC(=O)*; β3hF = N[C@H](CC(=O)O)Cc1ccccc1; Tle = CC(C)(C)[C@H](N)C(=O)O; Isovaleryl = CC(C)CC(=O)*; Ac6c = NC1(C(=O)O)CCCCC1; Dap = NC[C@H](N)C(=O)O; AEEA = NCCOCCOCC(=O)O; Ahx = NCCCCCC(=O)O

The target in the test is T1, human ferroportin (SLC40A1) fused in frame with GFP, stably expressed in HEK293 cells (human, UniProt Q9NP59 1-571).
T1 sequence (looked up): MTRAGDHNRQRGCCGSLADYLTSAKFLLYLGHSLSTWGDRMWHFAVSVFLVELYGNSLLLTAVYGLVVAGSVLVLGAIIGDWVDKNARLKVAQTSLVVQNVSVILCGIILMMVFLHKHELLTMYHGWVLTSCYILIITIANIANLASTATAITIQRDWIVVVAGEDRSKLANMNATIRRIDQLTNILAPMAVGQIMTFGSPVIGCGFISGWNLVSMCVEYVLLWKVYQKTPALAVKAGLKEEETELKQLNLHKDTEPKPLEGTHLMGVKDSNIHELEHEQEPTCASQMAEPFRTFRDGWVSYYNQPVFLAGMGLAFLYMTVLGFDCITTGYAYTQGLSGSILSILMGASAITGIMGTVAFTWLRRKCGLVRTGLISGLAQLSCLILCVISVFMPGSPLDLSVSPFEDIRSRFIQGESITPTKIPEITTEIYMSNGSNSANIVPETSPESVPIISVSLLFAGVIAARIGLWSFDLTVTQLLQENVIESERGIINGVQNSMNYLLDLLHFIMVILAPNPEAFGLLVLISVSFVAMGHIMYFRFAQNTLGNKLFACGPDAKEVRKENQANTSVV
The test is described as follows: cell-based or functional assay.
Turning to B1, the “IC50: FPN internalisation” value was 9.58 nM.
As for B2, the “IC50: FPN internalisation” value stood at 21 nM.
As to B3, the “IC50: FPN internalisation” value was 37.4 nM.
Turning to B4, the “IC50: FPN internalisation” value is 16.7 nM.
Consider B5, for which the “IC50: FPN internalisation” value came to 10.1 nM.
For B6, the “IC50: FPN internalisation” value was 28.1 nM.
In the case of B7, the “IC50: FPN internalisation” value came out at 19.9 nM.
On to B8, for which the “IC50: FPN internalisation” value was 475 nM.
Regarding B9, the “IC50: FPN internalisation” value came to 203 nM.
For B10 the value was 7.14 nM.
For B11 the value was 13.6 nM.
Regarding B12, the “IC50: FPN internalisation” value was 1760 nM.
For B13, the “IC50: FPN internalisation” value came out at 7.98 nM.
In the case of B14, the “IC50: FPN internalisation” value came to 26 nM.
Consider B15, for which the “IC50: FPN internalisation” value is 33.8 nM.
For the molecule B16, the “IC50: FPN internalisation” value was found to be 10.6 nM.
For B17, the “IC50: FPN internalisation” value was 55.7 nM.
Turning to B18, the “IC50: FPN internalisation” value came to 50.8 nM.
In the case of B19, the “IC50: FPN internalisation” value is 19.2 nM.
With B20, the “IC50: FPN internalisation” value amounted to 37.4 nM.
On to B21, for which the “IC50: FPN internalisation” value was determined as 69.9 nM.
Turning to B22, the “IC50: FPN internalisation” value was 14.6 nM.
For B23 the value was 24.2 nM.
B24: the “IC50: FPN internalisation” value was found to be 52.5 nM.
